# Measured values as given in FireProtDB.
# B1: Glutamate dehydrogenase, P96110 (parent)
# chain: MPEKSLYEMAVEQFNRAASLMDLESDLAEVLRRPKRVLIVEFPVRMDDGHVEVFTGYRVQHNVARGPAKGGIRYHPDVTLDEVKALAFWMTWKTAVMNLPFGGGKGGVRVDPKKLSRNELERLSRRFFSEIQVIIGPYNDIPAPDVNTNADVMAWYMDTYSMNVGHTVLGIVTGKPVELGGSKGREEATGRGVKVCAGLAMDVLGIDPKKATVAVQGFGNVGQFAALLISQELGSKVVAVSDSRGGIYNPEGFDVEELIRYKKEHGTVVTYPKGERITNEELLELDVDILVPAALEGAIHAGNAERIKAKAVVEGANGPTTPEADEILSRRGILVVPDILANAGGVTVSYFEWVQDLQSFFWDLDQVRNALEKMMKGAFNDVMKVKEKYNVDMRTAAYILAIDRVAYATKKRGIYP
# B2: Barstar, P11540 (parent)
# chain: MKKAVINGEQIRSISDLHQTLKKELALPEYYGENLDALWDCLTGWVEYPLVLEWRQFEQSKQLTENGAESVLQVFREAKAEGCDITIILS
# B3: W74C, P95467 (parent)
# chain: MKKALIASTALLLTAGVAAADVKISGYGRTGVIYYENDSDVNESRVQSRLRMNIDASSSTDSGVDFGARFRLQWDQGEEGEAQTNAGKLWVSAQGFTVEVGNVDTAFASNGLIYETGLGSYDRSVGFSAVTGAFFAYDSNGYGIDEVDRVGIRALYTLGDLTLQASYVDPDQSGTVIGVEEEFGFSVDYTWNERLELSAAAAFNGAGIDGNDIYFLGARYAVMDNARIGLNFVDAGDEEDGYDGKTIALYGDYTLADGRTNLEAYIANNDRDSNETDNAFGIGVNYDLGGARLGASLQRDYAENVTADFGVRFEF
# B4: Guanyl-specific ribonuclease Sa, P05798 (parent)
# chain: DVSGTVCLSALPPEATDTLNLIASDGPFPYSQDGVVFQNRESVLPTQSYGYYHEYTVITPGARTRGTRRIITGEATQEDYYTGDHYATFSLIDQTC
# B5: Glutamate dehydrogenase, Q56304 (parent)
# chain: MVEQDPFEIAVKQLERAAQYMDISEEALEFLKRPQRIVEVSIPVEMDDGSVKVFTGFRVQYNWARGPTKGGIRWHPEETLSTVKALAAWMTWKTAVMDLPYGGGKGGVICNPKEMSDREKERLARGYVRAIYDVISPYTDIPAPDVYTNPQIMAWMMDEYETISRRKDPSFGVITGKPPSVGGIVARMDATARGASYTVREAAKALGMDLKGKTIAIQGYGNAGYYMAKIMSEEYGMKVVAVSDSKGGIYNPDGLNADEVLAWKKKTGSVKDFPGATNITNEELLELEVDVLAPSAIEEVITKKNADNIKAKIVAELANGPTTPEADEILYEKGILIIPDFLCNAGGVTVSYFEWVQNITGDYWTVEETRAKLDKKMTKAFWDVYNTHKEKNINMRDAAYVVAVSRVYQAMKDRGWIKK
# B6: Citrate synthase, mitochondrial, P00889 (parent)
# chain: MALLTAAARLFGAKNASCLVLAARHASASSTNLKDILADLIPKEQARIKTFRQQHGNTVVGQITVDMMYGGMRGMKGLVYETSVLDPDEGIRFRGYSIPECQKMLPKAKGGEEPLPEGLFWLLVTGQIPTEEQVSWLSKEWAKRAALPSHVVTMLDNFPTNLHPMSQLSAAITALNSESNFARAYAEGIHRTKYWELIYEDCMDLIAKLPCVAAKIYRNLYREGSSIGAIDSKLDWSHNFTNMLGYTDAQFTELMRLYLTIHSDHEGGNVSAHTSHLVGSALSDPYLSFAAAMNGLAGPLHGLANQEVLVWLTQLQKEVGKDVSDEKLRDYIWNTLNSGRVVPGYGHAVLRKTDPRYTCQREFALKHLPHDPMFKLVAQLYKIVPNVLLEQGKAKNPWPNVDAHSGVLLQYYGMTEMNYYTVLFGVSRALGVLAQLIWSRALGFPLERPKSMSTDGLIKLVDSK
# B7: Gamma-crystallin D, P07320 (parent)
# chain: MGKITLYEDRGFQGRHYECSSDHPNLQPYLSRCNSARVDSGCWMLYEQPNYSGLQYFLRRGDYADHQQWMGLSDSVRSCRLIPHSGSHRIRLYEREDYRGQMIEFTEDCSCLQDRFRFNEIHSLNVLEGSWVLYELSNYRGRQYLLMPGDYRRYQDWGATNARVGSLRRVIDFS
# B8: Serine proteinase inhibitor IA-1, Q7M4T6 (parent)
# chain: SAGKFIVIFKNDVSEDKIRETKDEVIAEGGTITNEYNMPGMKGFAGELTPQSLTKFQGLQGDLIDSIEEDGIVTTQ
# B9: Lactose operon repressor, P03023 (parent)
# chain: MKPVTLYDVAEYAGVSYQTVSRVVNQASHVSAKTREKVEAAMAELNYIPNRVAQQLAGKQSLLIGVATSSLALHAPSQIVAAIKSRADQLGASVVVSMVERSGVEACKAAVHNLLAQRVSGLIINYPLDDQDAIAVEAACTNVPALFLDVSDQTPINSIIFSHEDGTRLGVEHLVALGHQQIALLAGPLSSVSARLRLAGWHKYLTRNQIQPIAEREGDWSAMSGFQQTMQMLNEGIVPTAMLVANDQMALGAMRAITESGLRVGADISVVGYDDTEDSSCYIPPLTTIKQDFRLLGQTSVDRLLQLSQGQAVKGNQLLPVSLVKRKTTLAPNTQTASPRALADSLMQLARQVSRLESGQ
# B10: Pyrrolidone-carboxylate peptidase, O73944 (parent)
# chain: MKVLVTGFEPFGGEKINPTERIAKDLDGIKIGDAQVFGRVLPVVFGKAKEVLEKTLEEIKPDIAIHVGLAPGRSAISIERIAVNAIDARIPDNEGKKIEDEPIVPGAPTAYFSTLPIKKIMKKLHERGIPAYISNSAGLYLCNYVMYLSLHHSATKGYPKMSGFIHVPYIPEQIIDKIGKGQVPPSMCYEMELEAVKVAIEVALEELL
# B11: Phenylalanine--tRNA ligase, mitochondrial, O95363 (parent)
# chain: MVGSALRRGAHAYVYLVSKASHISRGHQHQAWGSRPPAAECATQRAPGSVVELLGKSYPQDDHSNLTRKVLTRVGRNLHNQQHHPLWLIKERVKEHFYKQYVGRFGTPLFSVYDNLSPVVTTWQNFDSLLIPADHPSRKKGDNYYLNRTHMLRAHTSAHQWDLLHAGLDAFLVVGDVYRRDQIDSQHYPIFHQLEAVRLFSKHELFAGIKDGESLQLFEQSSRSAHKQETHTMEAVKLVEFDLKQTLTRLMAHLFGDELEIRWVDCYFPFTHPSFEMEINFHGEWLEVLGCGVMEQQLVNSAGAQDRIGWAFGLGLERLAMILYDIPDIRLFWCEDERFLKQFCVSNINQKVKFQPLSKYPAVINDISFWLPSENYAENDFYDLVRTIGGDLVEKVDLIDKFVHPKTHKTSHCYRITYRHMERTLSQREVRHIHQALQEAAVQLLGVEGRF
# B12: Proteinase inhibitor, Q03026 (parent)
# chain: MSASAKLSRMVCLLCGFFSTGISMASSLILLSASDLAGQWTLQQDEAPAICHLELRDSEVAEASGYDLGGDTACLTRWLPSEPRAWRPTPAGIALLERGGLTLMLLGRQGEGDYRVQKGDGGQLVLRRATP
# Variants of: B1
# Settings: Thermotoga maritima (strain ATCC 43589 / DSM 3109 / JCM 10099 / NBRC 100826 / MSB8); pH 7.4; Thermal; DSC; Sodium phosphate 20 mM; reversible: no; structure 1B26; whole UniProt chain shown
row,Variant,Tm [°C]
1,S129R T159E N118R,89.6
2,N118R,88.7
3,S129R,87
4,S129R T159E N118R S161E,88.3
5,T159E,83.1
6,S129R T159E S161E,88

# Variants of: B2
# Settings: Bacillus amyloliquefaciens; pH 8; 10 °C; Urea; CD; Tris Cl 50 mM; KCl 100 mM; structure 1BTA; whole UniProt chain shown
Variant,ddG of mutation (higher = less stable) [kcal/mol],unfolding free energy [kcal/mol]
L17V,1.1,1.9
L35V,1.1,1.9
I6V,1,2
L52V,0.6,2.4

# Same assay, conditions: Bacillus amyloliquefaciens; pH 7; Thermal; CD; phosphate 20 mM; structure 1A19; whole UniProt chain shown
row,Variant,Tm [°C]
1,H18Q,65

# Variants of: B3
# Settings: Paracoccus denitrificans; pH 8; Thermal; Absorbance; Tris-HCl 50 mM; NaCl 100 mM; reversible: no; whole UniProt chain shown
Variant,Tm [°C],"change of melting temperature, mutant - wild type (higher = more stable) [°C]"
W74C,82.4,-3.8
E81Q,84.2,-2
E81Q D148N,82.3,-3.9

# Variants of: B4
# Settings: Kitasatospora aureofaciens; pH 7; 25 °C; Thermal; CD; MOPS 30 mM; structure 1RGG; whole UniProt chain shown
row,Variant,ddG of mutation (higher = less stable) [kcal/mol]
1,D25H,-0.9
2,E74K,-1.1
3,E41K,1.2
4,D17K,1.1

# Variants of: B5
# Settings: Thermococcus litoralis (strain ATCC 51850 / DSM 5473 / JCM 8560 / NS-C); pH 7; Thermal; DSC; diglycine 50 mM; KCl 700 mM; reversible: no; structure 1BVU; whole UniProt chain shown
Variant,Tm [°C],"change of melting temperature, mutant - wild type (higher = more stable) [°C]"
T139E D168T,112,2.5
D168T,108,-0.5
T139E,104,-5.5

# Variants of: B6
# Settings: Sus scrofa; pH 7.5; Thermal; CD; Tris-HCl 5.0 mM; reversible: yes; structure 1CTS; whole UniProt chain shown
Variant,Tm [°C],"change of melting temperature, mutant - wild type (higher = more stable) [°C]"
D402Q,69,11.1
D402G,62.5,4.6
H301G,56,-1.9
H301R,56.8,-1.1

# Variants of: B7
# Settings: Homo sapiens; pH 7; Thermal; ANS fluorescence; PBS; transition: 2; reversible: yes; structure 1HK0; whole UniProt chain shown
Variant,Tm [°C],"change of melting temperature, mutant - wild type (higher = more stable) [°C]"
G61C,69.6,-7

# Same assay, conditions: Homo sapiens; pH 7; Thermal; CD; PBS; transition: 2; reversible: yes; structure 1HK0; whole UniProt chain shown
Variant,Tm [°C],"change of melting temperature, mutant - wild type (higher = more stable) [°C]"
G61C,73.9,-6.1

# Same assay, conditions: Homo sapiens; pH 7; Thermal; Fluorescence; PBS; transition: 2; reversible: yes; structure 1HK0; whole UniProt chain shown
row,Variant,Tm [°C]
1,G61C,74.3

# Same assay, conditions: Homo sapiens; pH 7; Thermal; light scattering; PBS; transition: 2; reversible: yes; structure 1HK0; whole UniProt chain shown
row,Variant,Tm [°C]
1,G61C,75.1

# Variants of: B8
# Settings: Pleurotus ostreatus; pH 7; Thermal; CD; sodium phosphate 50 mM; whole UniProt chain shown
Variant,Tm [°C],"change of melting temperature, mutant - wild type (higher = more stable) [°C]"
F56A,46,-13

# Variants of: B9
# Settings: Escherichia coli (strain K12); pH 7.4; Thermal; CD; phosphate 5 mM; reversible: no; structure 1LBI; whole UniProt chain shown
row,Variant,Tm [°C]
1,K84L,93
2,K84M,93

# Same assay, conditions: Escherichia coli (strain K12); pH 7.5; Urea; CD; Tris-HCl 0.01 M; K2SO4 0.1 M; reversible: yes (90%); structure 1LBI; whole UniProt chain shown
row,Variant,unfolding free energy [kcal/mol]
1,Y282D,4.8

# Variants of: B10
# Settings: Pyrococcus furiosus (strain ATCC 43587 / DSM 3638 / JCM 8422 / Vc1); pH 7; 60 °C; GdnHCl; CD; Tris-HCl 20 mM; reversible: yes; structure 1IOF; whole UniProt chain shown
Variant,denaturant m value [kcal/mol/M],denaturant midpoint (higher = more stable) [M],unfolding free energy [kcal/mol]
C142S C188S,4.16,3.4,13.5

# Variants of: B11
# Settings: Homo sapiens; pH 7.5; 25 °C; Urea; CD; Tris-HCl 50 mM; transition: 2; structure 3CMQ; whole UniProt chain shown
Variant,ddG of mutation (higher = less stable) [kcal/mol],denaturant midpoint (higher = more stable) [M]
N280S,-0.51,5.7
S57C,-0.43,5.9
S57C N280S,3.03,7.9

# Variants of: B12
# Settings: Pseudomonas aeruginosa (strain ATCC 15692 / DSM 22644 / CIP 104116 / JCM 14847 / LMG 12228 / 1C / PRS 101 / PAO1); pH 7.1; 25 °C; GdnHCl; CD; Tris-HCl 50 mM; reversible: yes (75%); structure 2RN4; whole UniProt chain shown
Variant,ddG of mutation (higher = less stable) [kcal/mol],unfolding free energy [kcal/mol]
W40F,-1.1,4.9
A33P,-3.2,7
